This passage reports killing in a CTL assay testing alloreactive CTL results from patent US20050053613A1.

A value given as a limit tells only on which side of the number the result lay.

The target of this test is CD8 on peripheral blood T cells (UniProt P01732). The experiment in a line: cell-based or functional assay.

Regarding “gp180, mAb B9 affinity-purified material from T84 cells (from UniProt P06731 35-685)”, the killing in a CTL assay testing alloreactive CTL was less than 15%.
